{
  "source": "patent EP4700044A1",
  "about": "“PROTEIN ANALOGUE AND USE THEREOF” (Shanghai Duomirui Biotechnology., Ltd., priority 2023, dated 2024)",
  "data": [
    {"target": "FGFR1c (UniProt P11362)", "sequence (P11362 22-822)": "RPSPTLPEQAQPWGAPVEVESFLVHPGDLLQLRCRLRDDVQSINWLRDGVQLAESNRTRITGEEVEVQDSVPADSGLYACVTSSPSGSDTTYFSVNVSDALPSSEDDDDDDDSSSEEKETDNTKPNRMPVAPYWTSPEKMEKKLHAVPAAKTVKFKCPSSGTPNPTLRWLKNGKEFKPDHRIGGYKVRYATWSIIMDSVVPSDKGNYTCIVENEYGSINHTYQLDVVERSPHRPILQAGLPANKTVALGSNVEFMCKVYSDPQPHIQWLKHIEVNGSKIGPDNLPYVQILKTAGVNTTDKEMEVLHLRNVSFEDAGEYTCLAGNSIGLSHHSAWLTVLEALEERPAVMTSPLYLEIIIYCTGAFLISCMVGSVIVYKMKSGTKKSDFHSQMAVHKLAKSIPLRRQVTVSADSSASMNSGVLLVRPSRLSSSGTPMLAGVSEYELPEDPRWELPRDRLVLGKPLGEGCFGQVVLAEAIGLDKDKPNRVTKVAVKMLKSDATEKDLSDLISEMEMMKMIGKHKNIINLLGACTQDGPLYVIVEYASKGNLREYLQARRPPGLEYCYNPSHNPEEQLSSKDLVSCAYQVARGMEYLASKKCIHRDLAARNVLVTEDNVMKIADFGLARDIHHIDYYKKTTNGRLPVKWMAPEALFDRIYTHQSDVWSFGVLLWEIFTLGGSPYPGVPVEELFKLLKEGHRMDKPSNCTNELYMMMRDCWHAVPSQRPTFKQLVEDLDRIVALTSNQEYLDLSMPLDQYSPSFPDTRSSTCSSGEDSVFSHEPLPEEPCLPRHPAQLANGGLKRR", "assay": "cell-based or functional assay", "units": {"EC50(nM), dual-luciferase reporter gene assay, iLite FGF21 assay ready cells": "nM"}, "values": [
      {"substance": "Human mature FGF21 fusion protein with a N-terminal PAS15 modification (PAS15FGF21) (from UniProt Q9NSA1 29-209) (ligand)", "EC50(nM), dual-luciferase reporter gene assay, iLite FGF21 assay ready cells": 0.22},
      {"substance": "Human mature FGF21 fusion protein with a N-terminal PAS100 modification (PAS100FGF21) (ligand)", "EC50(nM), dual-luciferase reporter gene assay, iLite FGF21 assay ready cells": 0.62},
      {"substance": "Human mature FGF21 fusion protein with a N-terminal PAS200 modification (PAS200FGF21) (ligand)", "EC50(nM), dual-luciferase reporter gene assay, iLite FGF21 assay ready cells": 1.98},
      {"substance": "Human mature FGF21 fusion protein with a N-terminal PAS50 modification (PAS50FGF21) (ligand)", "EC50(nM), dual-luciferase reporter gene assay, iLite FGF21 assay ready cells": 0.4},
      {"substance": "Human mature FGF21 fusion protein with a N-terminal PAS30 modification (PAS30FGF21) (ligand)", "EC50(nM), dual-luciferase reporter gene assay, iLite FGF21 assay ready cells": 0.3}
    ]}
  ]
}
